Data: the supplement of paper PMC9112550, “Optimization of the antimicrobial peptide Bac7 by deep mutational scanning” (BMC Biology, 2022)

Tested on: Escherichia coli TOP10
Experiment: shrunken log2 fold change of peptide-encoding DNA abundance (4.5 h post-induction vs induction); higher = less antimicrobial activity (less host growth inhibition)
Details: time post-induction: 4.5 h; library: site-saturation at positions 5, 18, 19, 20
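Also: peptides expressed intracellularly from a pBAD plasmid library in pooled LB shake-flask culture, induced with 0.3% L-arabinose, DNA abundance read by NGS, three biological replicates, DESeq2 with apeglm shrinkage.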

Sequence | shrunken log2 fold change
RRIRMRPPRLPRPRPRPPGNPRP | 0.475
RRIRVRPPRLPRPRPRPWEAPRP | 0.268
RRIRTRPPRLPRPRPRPYNMPRP | -0.568
RRIRPRPPRLPRPRPRPSTPPRP | -0.0766
RRIRNRPPRLPRPRPRPWFHPRP | -0.179
RRIRPRPPRLPRPRPRPLMQPRP | 0.124
RRIRVRPPRLPRPRPRPVTQPRP | 0.12
RRIRRRPPRLPRPRPRPPQRPRP | 1.64
RRIRKRPPRLPRPRPRPKNVPRP | 0.0773
RRIRVRPPRLPRPRPRPRLIPRP | -0.293
RRIRERPPRLPRPRPRPGWLPRP | 0.256
RRIRIRPPRLPRPRPRPHTYPRP | -0.715
RRIRRRPPRLPRPRPRPQPEPRP | 0.0541
RRIRCRPPRLPRPRPRPPHPPRP | 0.339
RRIRMRPPRLPRPRPRPYYCPRP | -0.603
RRIRHRPPRLPRPRPRPVWCPRP | -0.0641
RRIRTRPPRLPRPRPRPDPAPRP | 0.0522
RRIRMRPPRLPRPRPRPAIKPRP | -0.183
RRIRPRPPRLPRPRPRPPYQPRP | 0.249
RRIRVRPPRLPRPRPRPYLVPRP | -0.511
RRIRCRPPRLPRPRPRPLEKPRP | -0.072
RRIRWRPPRLPRPRPRPIYYPRP | -0.488
RRIRGRPPRLPRPRPRPNRLPRP | 0.104
RRIRGRPPRLPRPRPRPCITPRP | 0.158
RRIRARPPRLPRPRPRPQIRPRP | 0.0717

Sequence | shrunken log2 fold change
RRIRYRPPRLPRPRPRPFFPPRP | -0.682
RRIRTRPPRLPRPRPRPTMLPRP | 3.82
RRIRHRPPRLPRPRPRPQITPRP | -0.884
RRIRPRPPRLPRPRPRPCAMPRP | 0.0848
RRIRTRPPRLPRPRPRPASAPRP | 0.916
RRIRLRPPRLPRPRPRPLPFPRP | -0.289
RRIRLRPPRLPRPRPRPHNEPRP | -0.497
RRIRTRPPRLPRPRPRPWIWPRP | -0.0307
RRIRTRPPRLPRPRPRPAGIPRP | -0.0928
RRIRWRPPRLPRPRPRPQHKPRP | -0.0725
RRIRFRPPRLPRPRPRPDMGPRP | -0.176
RRIRDRPPRLPRPRPRPQSMPRP | 0.0598
RRIRGRPPRLPRPRPRPYKLPRP | -0.481
RRIRSRPPRLPRPRPRPAEQPRP | 0.0415
RRIRQRPPRLPRPRPRPGKQPRP | -0.117
RRIRPRPPRLPRPRPRPGSGPRP | 1.05
RRIRYRPPRLPRPRPRPRSTPRP | -0.156
RRIRPRPPRLPRPRPRPAYLPRP | -0.317
RRIRIRPPRLPRPRPRPRVCPRP | 0.00058
RRIRRRPPRLPRPRPRPRSRPRP | 0.345
RRIRERPPRLPRPRPRPAIIPRP | -0.259
RRIRNRPPRLPRPRPRPFIRPRP | -0.111
RRIRRRPPRLPRPRPRPQNEPRP | 0.0801
RRIRRRPPRLPRPRPRPVQIPRP | 0.14
RRIRQRPPRLPRPRPRPSWKPRP | -0.244

Sequence | shrunken log2 fold change
RRIRWRPPRLPRPRPRPRHFPRP | 0.223
RRIRNRPPRLPRPRPRPHLVPRP | -0.0893
RRIRVRPPRLPRPRPRPCCGPRP | -0.248
RRIRMRPPRLPRPRPRPCFYPRP | -0.16
RRIRYRPPRLPRPRPRPTTHPRP | -0.647
RRIRMRPPRLPRPRPRPGPRPRP | 1.46
RRIRLRPPRLPRPRPRPIVHPRP | 0.67
RRIRMRPPRLPRPRPRPPAKPRP | 1.06
RRIRNRPPRLPRPRPRPFRCPRP | -0.0563
RRIRNRPPRLPRPRPRPMSDPRP | -0.00992
RRIRIRPPRLPRPRPRPKMNPRP | -0.954
RRIRGRPPRLPRPRPRPWTKPRP | 0.0647
RRIRKRPPRLPRPRPRPRIRPRP | 0.344
RRIRIRPPRLPRPRPRPPIIPRP | -0.0124
RRIRPRPPRLPRPRPRPAGHPRP | 0.0291
RRIRSRPPRLPRPRPRPHPTPRP | 0.129
RRIRTRPPRLPRPRPRPLPYPRP | -0.0545
RRIRDRPPRLPRPRPRPYGAPRP | 0.00308
RRIRSRPPRLPRPRPRPQAIPRP | 0.0296
RRIRSRPPRLPRPRPRPISCPRP | -0.0707
RRIRHRPPRLPRPRPRPRPHPRP | 0.365
RRIRCRPPRLPRPRPRPVYFPRP | -0.711
RRIRHRPPRLPRPRPRPDHNPRP | -0.956
RRIRDRPPRLPRPRPRPEDCPRP | -0.0123
RRIRCRPPRLPRPRPRPCTNPRP | -0.134

Sequence | shrunken log2 fold change
RRIRYRPPRLPRPRPRPMKWPRP | 0.00957
RRIRTRPPRLPRPRPRPLSNPRP | 0.012
RRIRSRPPRLPRPRPRPHSFPRP | 0.176
RRIRTRPPRLPRPRPRPFKMPRP | -0.184
RRIRWRPPRLPRPRPRPWWWPRP | 0.12
RRIRVRPPRLPRPRPRPPASPRP | 0.398
RRIRYRPPRLPRPRPRPDMNPRP | 0.00911
RRIRWRPPRLPRPRPRPPHQPRP | 0.235
RRIRKRPPRLPRPRPRPAVRPRP | 0.951
RRIRGRPPRLPRPRPRPNPGPRP | 0.158
RRIRWRPPRLPRPRPRPRWAPRP | 0.662
RRIRGRPPRLPRPRPRPDTSPRP | 0.383
RRIRQRPPRLPRPRPRPMKEPRP | -0.0272
RRIRARPPRLPRPRPRPSTQPRP | 0.265
RRIRHRPPRLPRPRPRPVPVPRP | 0.0601
RRIRWRPPRLPRPRPRPAHFPRP | 0.141
RRIRCRPPRLPRPRPRPKINPRP | -0.645
RRIRERPPRLPRPRPRPEMVPRP | -0.0371
RRIRERPPRLPRPRPRPMRYPRP | 0.000213
RRIRFRPPRLPRPRPRPANDPRP | 0.0325
RRIRLRPPRLPRPRPRPRVCPRP | 0.0558
RRIRSRPPRLPRPRPRPVYHPRP | 0.0286
RRIRVRPPRLPRPRPRPGWKPRP | 0.169
RRIRGRPPRLPRPRPRPKDCPRP | 0.427
RRIRLRPPRLPRPRPRPPVFPRP | 0.0392

Sequence | shrunken log2 fold change
RRIRPRPPRLPRPRPRPDQSPRP | 0.021
RRIRMRPPRLPRPRPRPTTGPRP | 0.467
RRIRKRPPRLPRPRPRPATLPRP | 0.312
RRIRMRPPRLPRPRPRPRFGPRP | 0.853
RRIRHRPPRLPRPRPRPKFVPRP | -0.0479
RRIRWRPPRLPRPRPRPDLQPRP | -0.0193
RRIRDRPPRLPRPRPRPAVCPRP | 1.19
RRIRVRPPRLPRPRPRPNKDPRP | -0.448
RRIRHRPPRLPRPRPRPCTTPRP | -1.7
RRIRQRPPRLPRPRPRPSRRPRP | 0.0103
RRIRFRPPRLPRPRPRPRQTPRP | -0.0912
RRIRKRPPRLPRPRPRPQHAPRP | 0.232
RRIRERPPRLPRPRPRPYEYPRP | -0.387
RRIRIRPPRLPRPRPRPYGQPRP | -0.284
RRIRFRPPRLPRPRPRPYQTPRP | -0.0618
RRIRPRPPRLPRPRPRPLESPRP | -0.0234
RRIRDRPPRLPRPRPRPDCQPRP | -0.00973
RRIRRRPPRLPRPRPRPEETPRP | 0.244
RRIRPRPPRLPRPRPRPAWSPRP | 0.152
RRIRQRPPRLPRPRPRPHLNPRP | -0.29
RRIRIRPPRLPRPRPRPSFWPRP | 0.059
RRIRTRPPRLPRPRPRPQPWPRP | 0.314
RRIRWRPPRLPRPRPRPAIIPRP | -0.296
RRIRKRPPRLPRPRPRPDGAPRP | 0.632
RRIRIRPPRLPRPRPRPNMAPRP | -0.344
